Values quoted from earlier work as cited in PMC8569200.

Target: CD137 (Homo sapiens) (UniProt Q07011)
Assay: SPR

Sequence of CD137 (Homo sapiens) (Q07011 24-255): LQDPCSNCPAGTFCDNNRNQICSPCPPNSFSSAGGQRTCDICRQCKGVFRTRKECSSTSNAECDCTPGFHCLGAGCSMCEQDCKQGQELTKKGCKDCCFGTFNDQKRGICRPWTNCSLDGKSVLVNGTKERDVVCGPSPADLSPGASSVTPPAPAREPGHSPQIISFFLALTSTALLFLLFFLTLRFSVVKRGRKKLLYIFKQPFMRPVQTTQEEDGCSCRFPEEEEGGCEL
Sequence of CD137L (P41273 whole entry): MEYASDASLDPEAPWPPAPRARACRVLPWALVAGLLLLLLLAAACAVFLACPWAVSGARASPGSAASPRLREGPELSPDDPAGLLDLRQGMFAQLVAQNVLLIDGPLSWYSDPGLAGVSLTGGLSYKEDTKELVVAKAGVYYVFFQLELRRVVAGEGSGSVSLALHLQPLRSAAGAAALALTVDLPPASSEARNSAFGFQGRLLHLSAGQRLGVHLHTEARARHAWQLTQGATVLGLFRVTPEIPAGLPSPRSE

In the case of CD137L (from UniProt P41273), the Kd is listed as 0.68 µM.
